Data reported in patent US20110070184A1, “METHODS AND COMPOSITIONS FOR TREATING ATHEROSCLEROSIS AND RELATED CONDIDTIONS” (CAROLUS THERPEUTICS, INC., priority 2008, published 2011).

T1: CXCR2 (Homo sapiens, UniProt P25025)
T1 construct: expressed in transfected cells
T1 sequence (P25025 1-360): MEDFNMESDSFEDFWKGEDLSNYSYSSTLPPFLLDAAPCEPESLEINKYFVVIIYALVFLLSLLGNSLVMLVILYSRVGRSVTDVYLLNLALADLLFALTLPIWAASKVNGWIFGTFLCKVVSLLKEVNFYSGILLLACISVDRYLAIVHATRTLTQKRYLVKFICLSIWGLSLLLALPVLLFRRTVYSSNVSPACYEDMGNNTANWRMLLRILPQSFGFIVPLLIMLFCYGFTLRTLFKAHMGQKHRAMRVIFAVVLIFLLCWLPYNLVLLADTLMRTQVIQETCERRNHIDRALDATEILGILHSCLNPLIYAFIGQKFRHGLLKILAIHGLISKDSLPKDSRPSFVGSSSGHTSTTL

B1: MIF: Recombinant macrophage migration inhibitory factor, expressed and purified as described (Bernhagen 1993) (protein)
chain: PMFIVNTNVPRASVPDGFLSELTQQLAQATGKPPQYIAVHVVPDQLMAFGGSSEPCALCSLHSIGKIGGAQNRSYSKLLCGLLAERLRISPDRVYINYYDMNAANVGWNNSTFA

Legend:
CXCR4 = CXCR4 (Homo sapiens, UniProt P61073); conditions: data not shown
CXCR4, sequence (P61073 whole entry): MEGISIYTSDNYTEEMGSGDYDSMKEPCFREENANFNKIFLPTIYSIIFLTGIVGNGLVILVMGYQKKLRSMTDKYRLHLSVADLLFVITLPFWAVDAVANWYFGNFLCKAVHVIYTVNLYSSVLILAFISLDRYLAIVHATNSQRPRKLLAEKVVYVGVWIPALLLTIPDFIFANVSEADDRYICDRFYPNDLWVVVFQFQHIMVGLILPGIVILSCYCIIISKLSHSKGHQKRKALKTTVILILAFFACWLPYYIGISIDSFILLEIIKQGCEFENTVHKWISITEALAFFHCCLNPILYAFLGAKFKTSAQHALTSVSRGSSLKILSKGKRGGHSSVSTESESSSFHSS

[1] = system: leukocyte adhesion and emigration in postcapillary venules; assay: Cremaster microcirculation model, intravital microscopy; format: in vivo, mouse; conditions: MIF injected adjacent to the cremaster muscle
Experimental: Cremaster microcirculation model. […] After 4 h, intravital microscopy (Zeiss Axioplan; 20×) was performed in postcapillary venules (Gregory, J. L., et al. (2004) Arthritis Rheum. 50, 3023-3034; Keane, M. P., et al. (2004) J. Immunol. 172, 2853-2860). Adhesion was measured as leukocytes stationary for more than 30 s, emigration as the number of extravascular leukocytes per field.

[2] = system: primary human neutrophils; assay: Calcium mobilization in neutrophils (Fluo-4 AM); format: cell-based
Source text: (§1) Calcium mobilization. Neutrophils or L1.2 CXCR2 transfectants were labeled with Fluo-4 AM (Molecular Probes).

primary human monocytes [3] = assay: Arrest of primary monocytes on MIF-pretreated human aortic endothelial cells under flow; format: cell-based; conditions: aortic endothelial cells pretreated with recombinant MIF for 2 h
Experimental: Adhesion assays. Arrest of calcein-AM (Molecular Probes)-labeled monocytes, T cells and L1.2 transfectants was quantified in parallel-wall chambers in flow (1.5 dynes/cm^2, 5 min) (Schober, A., et al. (2004) Circulation 109, 380-385; Osterman, G., et al. (2002) Nat. Immunol. 3, 151-158; Weber, C., et al. (1996) J. Cell Biol. 134, 1063-1073).

CXCR2 [4] = biological target: T1, CXCR2; assay: Calcium mobilization in L1.2 CXCR2 transfectants (Fluo-4 AM); format: cell-based
Source text: as §1

CCR5 = biological target: T2, CCR5 (Homo sapiens, UniProt P51681); assay: CCR5 internalization in L1.2 CCR5 transfectants; format: cell-based; conditions: data not shown
T2 construct: host or cells: L1.2 (mouse pre-B lymphoma) cells
T2 sequence (P51681 whole entry): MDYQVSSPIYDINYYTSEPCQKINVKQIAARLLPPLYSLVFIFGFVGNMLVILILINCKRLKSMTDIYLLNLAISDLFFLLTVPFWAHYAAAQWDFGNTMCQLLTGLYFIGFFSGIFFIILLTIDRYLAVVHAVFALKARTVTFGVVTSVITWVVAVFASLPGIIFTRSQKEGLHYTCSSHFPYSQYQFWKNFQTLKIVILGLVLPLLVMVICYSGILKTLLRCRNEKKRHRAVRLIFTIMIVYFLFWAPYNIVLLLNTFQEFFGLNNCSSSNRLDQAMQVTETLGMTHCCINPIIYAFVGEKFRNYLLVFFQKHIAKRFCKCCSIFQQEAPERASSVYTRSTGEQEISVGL

primary human monocytes [5] = assay: Transwell chemotaxis of primary monocytes toward MIF; format: cell-based
Experimental: (§2) Chemotaxis assays. […] Pore sizes and intervals were 5 μm and 3 h (monocytes), 3 μm and 1.5 h (T cells), and […] and 1 h (neutrophils).

neutrophil recruitment = assay: Model of acute MIF-induced peritonitis; format: in vivo, mouse; conditions: after 4 h, mice with wild-type bone marrow
Experimental: Model of acute peritonitis. […] After 4 h, peritoneal Iavage was performed and Gr-1^+CD115^−F4/80^− neutrophils were quantified by flow cytometry using the relevant conjugated antibodies.

CXCR2 [6] = biological target: T1, CXCR2; assay: CXCR2 internalization assay in HEK293-CXCR2 transfectants (FACS); format: cell-based; conditions: stable HEK293 transfectants
Experimental: CXCR internalization assays. […] Internalization was calculated relative to surface expression of buffer-treated cells (100% control) and isotype control staining (0% control): geometric MFI[experimental]−MFI[0% control]/MFI[100% control]−MFI[0% control]×100.

[7] = system: primary CD3+ T lymphocytes; assay: Transwell chemotaxis of primary CD3+ T cells toward MIF; format: cell-based, human; conditions: primary CD3+ T lymphocytes devoid of CXCR1 and CXCR2
Experimental: as §2

| Molecule | specific binding of fluorescein-MIF to CXCR4-bearing Jurkat cells (CXCR4) | leukocyte adhesion and emigration in postcapillary venules [1] | calcium influx [2] | arrest of primary human monocytes under flow conditions (primary human monocytes [3]) | calcium influx (CXCR2 [4]) | CCR5 internalization (CCR5) | MIF concentration that induced optimal chemotaxis (primary human monocytes [5]) | optimum of bell-shaped dose-response curve of induced monocyte migration (primary human monocytes [5]; MIF in lower chamber, primary human PBMC-derived monocytes) | neutrophil recruitment after intraperitoneal injection (neutrophil recruitment) | CXCR2 internalization (surface CXCR2 by FACS) (CXCR2 [6]) | T-cell transmigration [7] |
| --- | --- | --- | --- | --- | --- | --- | --- | --- | --- | --- | --- |
| c1ccc(CNCc2ccc(CN3CCCNCCNCCCNCC3)cc2)nc1 [AMD3465] | inhibited |  |  |  |  |  |  |  |  |  |  |
| B1 |  | marked increase | induced calcium influx | substantially increased the arrest | dose-dependently induced calcium influx | unable to induce CCR5 internalization | 2 to 4 nM | 25 to 50 ng/mL | elicited neutrophil recruitment | induced CXCR2 internalization | dose-dependently induced transmigration |
